System: Escherichia coli TOP10
Assay: shrunken log2 fold change of peptide-encoding DNA abundance (4.5 h post-induction vs induction); higher = less antimicrobial activity (less host growth inhibition)
Conditions: time post-induction: 4.5 h; library: site-saturation at positions 5, 18, 19, 20
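Also: peptides expressed intracellularly from a pBAD plasmid library in pooled LB shake-flask culture, induced with 0.3% L-arabinose, DNA abundance read by NGS, three biological replicates, DESeq2 with apeglm shrinkage.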

Sequence	shrunken log2 fold change
RRIRDRPPRLPRPRPRPPQLPRP	0.143
RRIRLRPPRLPRPRPRPKVNPRP	0.0232
RRIRNRPPRLPRPRPRPFCLPRP	-0.363
RRIRWRPPRLPRPRPRPAIPPRP	0.332
RRIRCRPPRLPRPRPRPDKLPRP	0.0152
RRIRERPPRLPRPRPRPNCFPRP	-0.195
RRIRTRPPRLPRPRPRPFFTPRP	-0.118
RRIRFRPPRLPRPRPRPYVYPRP	-0.196
RRIRFRPPRLPRPRPRPQFTPRP	-0.362
RRIRFRPPRLPRPRPRPLADPRP	-0.0773
RRIRDRPPRLPRPRPRPQMPPRP	-0.486
RRIRNRPPRLPRPRPRPIWAPRP	0.0814
RRIRLRPPRLPRPRPRPGSAPRP	0.273
RRIRWRPPRLPRPRPRPEVKPRP	0.21
RRIRKRPPRLPRPRPRPSSTPRP	-0.151
RRIRVRPPRLPRPRPRPSMYPRP	0.531
RRIRSRPPRLPRPRPRPPDFPRP	0.29
RRIRSRPPRLPRPRPRPRDHPRP	0.0497
RRIRFRPPRLPRPRPRPLFDPRP	-0.578
RRIRDRPPRLPRPRPRPSHGPRP	-0.0107
RRIRGRPPRLPRPRPRPPIWPRP	0.67
RRIRQRPPRLPRPRPRPAREPRP	-0.0167
RRIRRRPPRLPRPRPRPGMKPRP	-0.133
RRIRYRPPRLPRPRPRPKLSPRP	-0.204
RRIRCRPPRLPRPRPRPKFIPRP	-0.653

Sequence	shrunken log2 fold change
RRIRCRPPRLPRPRPRPEAYPRP	-0.0117
RRIRPRPPRLPRPRPRPHLTPRP	0.185
RRIRTRPPRLPRPRPRPVENPRP	-0.146
RRIRFRPPRLPRPRPRPSHSPRP	-0.171
RRIRIRPPRLPRPRPRPMMAPRP	0.0709
RRIRQRPPRLPRPRPRPAGPPRP	-0.000608
RRIRCRPPRLPRPRPRPHRNPRP	-0.791
RRIRGRPPRLPRPRPRPTHLPRP	0.359
RRIRERPPRLPRPRPRPHDDPRP	-0.147
RRIRKRPPRLPRPRPRPSWLPRP	0.303
RRIRIRPPRLPRPRPRPKTKPRP	-0.0929
RRIRGRPPRLPRPRPRPAQFPRP	0.199
RRIRYRPPRLPRPRPRPVNHPRP	-0.073
RRIRTRPPRLPRPRPRPTNVPRP	0.118
RRIRCRPPRLPRPRPRPCLWPRP	0.238
RRIRCRPPRLPRPRPRPTRPPRP	0.938
RRIRARPPRLPRPRPRPTRWPRP	0.539
RRIRQRPPRLPRPRPRPPKEPRP	-0.168
RRIRTRPPRLPRPRPRPCNRPRP	-0.144
RRIRWRPPRLPRPRPRPYMLPRP	-0.298
RRIRMRPPRLPRPRPRPHRYPRP	-0.144
RRIRVRPPRLPRPRPRPFEPPRP	0.126
RRIRERPPRLPRPRPRPETFPRP	-0.0158
RRIRCRPPRLPRPRPRPAAKPRP	0.164
RRIRKRPPRLPRPRPRPDWSPRP	0.0357

Sequence	shrunken log2 fold change
RRIRDRPPRLPRPRPRPLMPPRP	0.097
RRIRRRPPRLPRPRPRPDSVPRP	7.52e-05
RRIRGRPPRLPRPRPRPELDPRP	0.807
RRIRCRPPRLPRPRPRPGFFPRP	0.0565
RRIRPRPPRLPRPRPRPQWAPRP	0.052
RRIRTRPPRLPRPRPRPCHVPRP	-0.114
RRIRTRPPRLPRPRPRPNSDPRP	-0.0311
RRIRHRPPRLPRPRPRPGHWPRP	-0.0325
RRIRLRPPRLPRPRPRPLNHPRP	-0.355
RRIRYRPPRLPRPRPRPMKLPRP	-0.58
RRIRLRPPRLPRPRPRPVVSPRP	-0.054
RRIRFRPPRLPRPRPRPQRKPRP	0.089
RRIRYRPPRLPRPRPRPLWSPRP	0.0381
RRIRPRPPRLPRPRPRPTRWPRP	-0.0766
RRIRQRPPRLPRPRPRPSIQPRP	-0.13
RRIRWRPPRLPRPRPRPTQMPRP	0.59
RRIRVRPPRLPRPRPRPAPTPRP	0.638
RRIRVRPPRLPRPRPRPEIHPRP	-0.0841
RRIRHRPPRLPRPRPRPAWNPRP	0.287
RRIRKRPPRLPRPRPRPPKRPRP	1.15
RRIRARPPRLPRPRPRPGMVPRP	0.509
RRIRSRPPRLPRPRPRPCQCPRP	0.017
RRIRDRPPRLPRPRPRPEVCPRP	0.0705
RRIRDRPPRLPRPRPRPFRTPRP	-0.0508
RRIRHRPPRLPRPRPRPQIKPRP	-0.889

Sequence	shrunken log2 fold change
RRIRWRPPRLPRPRPRPTEVPRP	0.0181
RRIRWRPPRLPRPRPRPEGCPRP	1.22
RRIRTRPPRLPRPRPRPQFFPRP	-0.11
RRIRPRPPRLPRPRPRPKRFPRP	0.297
RRIRCRPPRLPRPRPRPCCVPRP	-0.409
RRIRSRPPRLPRPRPRPQHSPRP	-0.658
RRIRPRPPRLPRPRPRPGFYPRP	-0.421
RRIRKRPPRLPRPRPRPLTRPRP	0.31
RRIRMRPPRLPRPRPRPMCYPRP	0.0406
RRIRSRPPRLPRPRPRPCSPPRP	0.149
RRIRCRPPRLPRPRPRPNDSPRP	-0.221
RRIRWRPPRLPRPRPRPYEFPRP	-0.00843
RRIRARPPRLPRPRPRPGQKPRP	-0.0844
RRIRRRPPRLPRPRPRPDWVPRP	0.037
RRIRIRPPRLPRPRPRPMLWPRP	0.0197
RRIRPRPPRLPRPRPRPMRMPRP	0.268
RRIRDRPPRLPRPRPRPWWHPRP	0.133
RRIRMRPPRLPRPRPRPMNGPRP	0.0715
RRIRCRPPRLPRPRPRPMKKPRP	0.0602
RRIRLRPPRLPRPRPRPFEAPRP	-0.256
RRIRRRPPRLPRPRPRPYASPRP	-0.0782
RRIRQRPPRLPRPRPRPCKHPRP	-1.29
RRIRFRPPRLPRPRPRPGSWPRP	0.244
RRIRWRPPRLPRPRPRPMLMPRP	-0.0339
RRIRPRPPRLPRPRPRPMFYPRP	-0.449

Sequence	shrunken log2 fold change
RRIRNRPPRLPRPRPRPSTHPRP	-0.274
RRIRFRPPRLPRPRPRPGFEPRP	-0.0266
RRIRCRPPRLPRPRPRPNWNPRP	-0.514
RRIRIRPPRLPRPRPRPFIKPRP	-0.913
RRIRFRPPRLPRPRPRPVEHPRP	-0.0778
RRIRTRPPRLPRPRPRPFAIPRP	0.061
RRIRLRPPRLPRPRPRPYDEPRP	-0.353
RRIRPRPPRLPRPRPRPHHAPRP	-0.125
RRIRKRPPRLPRPRPRPGYGPRP	0.13
RRIRSRPPRLPRPRPRPADMPRP	0.0296
RRIRCRPPRLPRPRPRPAYIPRP	-0.628
RRIRGRPPRLPRPRPRPQHYPRP	-0.167
RRIRERPPRLPRPRPRPELAPRP	0.161
RRIRVRPPRLPRPRPRPEWGPRP	2.29
RRIRYRPPRLPRPRPRPLSLPRP	-1.1
RRIRYRPPRLPRPRPRPHIWPRP	-0.272
RRIRERPPRLPRPRPRPAQWPRP	0.184
RRIRFRPPRLPRPRPRPQLSPRP	-0.0854
RRIRCRPPRLPRPRPRPCAHPRP	0.0631
RRIRGRPPRLPRPRPRPMDPPRP	0.00995
RRIRARPPRLPRPRPRPFKDPRP	-0.0208
RRIRFRPPRLPRPRPRPEDGPRP	0.333
RRIRNRPPRLPRPRPRPWNYPRP	-0.101
RRIRERPPRLPRPRPRPGVMPRP	0.0523
RRIRARPPRLPRPRPRPTTTPRP	0.264

Reference: the supplement of paper PMC9112550, “Optimization of the antimicrobial peptide Bac7 by deep mutational scanning” (BMC Biology, 2022)
